From article PMC9430756, “AhrC Negatively Regulates Streptococcus mutans Arginine Biosynthesis”

What was measured:
[1] = molecular target: T1, AhrC (Streptococcus mutans UA159) (UniProt Q8DVB1); assay: EMSA; settings: EMSA: 20 mM Tris-HCl, 100 mM NaCl, 5% glycerol, 30 min on ice, pH not stated; native PAGE in 0.5x TBE at 4 C. Footprinting: DNase I 0.1 Kunitz units/uL, 4 min …
T1 sequence: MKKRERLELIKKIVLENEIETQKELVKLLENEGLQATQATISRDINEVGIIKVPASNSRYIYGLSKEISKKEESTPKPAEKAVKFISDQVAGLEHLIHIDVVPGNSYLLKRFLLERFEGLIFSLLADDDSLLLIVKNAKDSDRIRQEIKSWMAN

AhrC [2] = molecular target: T2, AhrC (Streptococcus mutans UA159, UniProt Q8DVB1 1-154); assay: EMSA; settings: protein: recombinant; tags: 6xHis (pET28a, NotI/XhoI); chain copies: 6; label: FAM
T2 sequence: T1 sequence

AhrC [3] = molecular target: T2, AhrC; assay: EMSA; EMSA: 20 mM Tris-HCl, 100 mM NaCl, 5% glycerol, 30 min on ice, pH not stated; native PAGE in 0.5x TBE at 4 C. Footprinting: DNase I 0.1 Kunitz units/uL, 4 min at 37 C; settings: protein: recombinant; tags: 6xHis (pET28a, NotI/XhoI); chain copies: 6; label: FAM

Molecule: AATAATTTTGTTATCATGAGTTAAAGTATCTAGTTATAAACTAGGTACTTTTTACATTTTATTCATTTCTAGCTTGACTTATGAATAAATATACGATAAAATAAACAACATCTTTATAAAGGAAGTGAATAAGT (double strand) [argC promoter (argCp)]
- binding [1]: binds

B1: argC p1mut (dsDNA)
DNA 1: CATTTCTAGCTTGCCCCCCGACCCCCCATACGATAAA
DNA 2: TTTATCGTATGGGGGGTCGGGGGGCAAGCTAGAAATG
- binding result (AhrC [2]): no binding

B2: argC p1 (dsDNA)
DNA 1: CATTTCTAGCTTGACTTATGAATAAATATACGATAAA
DNA 2: TTTATCGTATATTTATTCATAAGTCAAGCTAGAAATG
- binding result (AhrC [3]): binds
